According to patent publication US20230220042A1 (SHANGHAI JIAO TONG UNIVERSITY SCHOOL OF MEDICINE, published 2023):
Residue numbers refer to the chain shown, from its start. Names and notes keep the numbering of the source. Values belong to the molecule of their own block, whether it stands above or below them.

What was measured:
[1] = biological target: FcγRIIA^131R (human) (UniProt P12318); test: ELISA, coated antibody, biotin-FcγR;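 as to Absorbance value: antibody coated at 2 µg/mL at 100 µL per well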
[2] = biological target: T1, Biotin-FcγRIIB (human, UniProt P31994 43-217, limits assumed, biotin-labelled); test: FACS sorting of displayed Fc library on biotin-FcγRIIB, NGS; reference G327A
T1 construct: Bought, biotin-labelled; used at 1 µg/ml for staining and sorting; also called human FcγRIIB; CD32b
T1 sequence (looked up): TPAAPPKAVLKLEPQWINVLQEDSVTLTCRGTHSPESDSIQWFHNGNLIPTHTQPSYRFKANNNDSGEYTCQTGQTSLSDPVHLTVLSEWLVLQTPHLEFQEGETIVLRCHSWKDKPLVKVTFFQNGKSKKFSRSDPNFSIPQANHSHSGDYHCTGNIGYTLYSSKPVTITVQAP

[3] = biological target: T1, Biotin-FcγRIIB; test: FACS sorting of displayed Fc library on biotin-FcγRIIB, NGS
[4] = biological target: T1, Biotin-FcγRIIB; test: FACS sorting of displayed Fc library on biotin-FcγRIIB, NGS; reference S267E
[5] = biological target: T1, Biotin-FcγRIIB; test: FACS sorting of displayed Fc library on biotin-FcγRIIB, NGS; reference P271C
[6] = biological target: T2, FcγRIIB (human, UniProt P31994 43-217, biotin-labeled); test: ELISA, coated antibody, biotin-FcγR;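 as to Absorbance value: antibody coated at 2 µg/mL at 100 µL per well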
T2 construct: extracellular domain; Bought protein; also called CD32b
T2 sequence (looked up): T1 sequence (looked up)

[7] = biological target: T3, FcγRIIA^131H (human, UniProt P12318 34-217, biotin-labeled); test: ELISA, coated antibody, biotin-FcγR;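 as to Absorbance value: antibody coated at 2 µg/mL at 100 µL per well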
T3 construct: extracellular domain; Bought protein; also called RIIAH
T3 sequence (looked up): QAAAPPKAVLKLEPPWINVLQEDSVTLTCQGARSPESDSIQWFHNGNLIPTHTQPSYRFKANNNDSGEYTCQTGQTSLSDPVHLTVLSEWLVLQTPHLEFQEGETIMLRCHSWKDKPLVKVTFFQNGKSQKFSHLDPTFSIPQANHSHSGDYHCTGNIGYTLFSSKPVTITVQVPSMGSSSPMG

[8] = biological target: T4, FcγRIIIA^158F (human, UniProt P08637 17-208, biotin-labeled); test: ELISA, coated antibody, biotin-FcγR;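 as to Absorbance value: antibody coated at 2 µg/mL at 100 µL per well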
T4 construct: extracellular domain; Bought protein; also called RIIIAF
T4 sequence (P08637 17-208): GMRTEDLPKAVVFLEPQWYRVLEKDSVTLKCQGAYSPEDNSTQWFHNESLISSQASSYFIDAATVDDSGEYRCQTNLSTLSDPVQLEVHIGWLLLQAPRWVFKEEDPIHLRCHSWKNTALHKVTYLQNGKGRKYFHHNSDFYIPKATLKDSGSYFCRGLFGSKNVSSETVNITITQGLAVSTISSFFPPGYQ

[9] = biological target: T5, FcγRIIIA^158V (human, UniProt P08637 17-208, biotin-labeled); test: ELISA, coated antibody, biotin-FcγR;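 as to Absorbance value: antibody coated at 2 µg/mL at 100 µL per well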
T5 construct: extracellular domain; Bought protein; also called RIIIAV; CD16a 158V
T5 sequence (P08637 17-208 F176V): as the sequence (P08637 17-208) above, with F160V counted along it

[10] = biological target: T6, FcγRI (human, UniProt P12314 16-292, biotin-labeled); test: ELISA, coated antibody, biotin-FcγR;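 as to Absorbance value: antibody coated at 2 µg/mL at 100 µL per well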
T6 construct: extracellular domain; Bought protein; also called CD64
T6 sequence (P12314 16-292): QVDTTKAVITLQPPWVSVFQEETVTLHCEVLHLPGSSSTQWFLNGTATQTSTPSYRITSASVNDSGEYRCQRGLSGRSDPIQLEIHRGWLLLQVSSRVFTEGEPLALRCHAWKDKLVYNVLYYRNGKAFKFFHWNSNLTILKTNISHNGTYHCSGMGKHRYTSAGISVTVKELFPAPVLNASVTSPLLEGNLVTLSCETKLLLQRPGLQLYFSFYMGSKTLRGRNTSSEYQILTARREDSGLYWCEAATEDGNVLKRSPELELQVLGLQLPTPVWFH

[11] = biological target: T2, FcγRIIB; test: ELISA; relative affinity to FcγRIIB over that to FcγRIIA131R

Absorbance value [1]: 0.04 A650
Molecule: IgG2 N297A (antibody)

Increased factor 2 c Site 1 (combined/point mutation) [2]: 19.5
Enrichment factor (after/before sorting) [3]: 98.3
Increased factor a (enrichment factor/wild-type enrichment factor) [3]: 65.8
B1: human IgG2 anti-mouse CD40 surface displayed antibody, Fc mutant G327A/A330R (antibody, name in EU numbering)
light chain (with the P2A rest): DTVLTQSPALAVSPGERVTISCRASDSVSTLMHWYQQKPGQQPKLLIYLASHLESGVPARFSGSGSGTDFTLTIDPVEADDTATYYCQQSWNDPWTFGGGTKLELKRTVAAPSVFIFPPSDEQLKSGTASVVCLLNNFYPREAKVQWKVDNALQSGNSQESVTEQDSKDSTYSLSSTLTLSKADYEKHKVYACEVTHQGLSSPVTKSFNRGECGSGATNFSLLKQAGDVEENPG
heavy chain: EVQLVESDGGLVQPGRSLKLPCAASGFTFSDYYMAWVRQAPTKGLEWVASISYDGSSTYYRDSVKGRFTISRDNAKSTLYLQMDSLRSEDTATYYCGRHSSYFDYWGQGVMVTVSSASTKGPSVFPLAPCSRSTSESTAALGCLVKDYFPEPVTVSWNSGALTSGVHTFPAVLQSSGLYSLSSVVTVPSSNFGTQTYTCNVDHKPSNTKVDKTVERKCCVECPPCPAPPVAGPSVFLFPPKPKDTLMISRTPEVTCVVVDVSHEDPEVQFNWYVDGVEVHNAKTKPREEQFNSTFRVVSVLTVVHQDWLNGKEYKCKVSNKALPRPIEKTISKTKGQPREPQVYTLPPSREEMTKNQVSLTCLVKGFYPSDIAVEWESNGQPENNYKTTPPMLDSDGSFFLYSKLTVDKSRWQQGNVFSCSVMHEALHNHYTQKSLSLSPGKLEPPPSTVSNMATVAVLVVLGAAIVTGAVVAFVMKMRRRNTGGKGGDYALAPGSQTSDLSLPDCKVMVHDPHSLA
notes: as m1; positions are Eu numbers; copies: 2 + 2

Increased factor 2 c Site 1 (combined/point mutation) [2]: 2.3
Enrichment factor (after/before sorting) [3]: 11.4
Increased factor a (enrichment factor/wild-type enrichment factor) [3]: 7.64
B2: human IgG2 anti-mouse CD40 surface displayed antibody, Fc mutant G327A/I332C (antibody, name in EU numbering)
light chain (with the P2A rest): B1 light chain (with the P2A rest)
heavy chain: B1 heavy chain with R325A, I327C
notes: as for B1

Enrichment factor (after/before sorting) [3]: 19.2
Increased factor a (enrichment factor/wild-type enrichment factor) [3]: 33.4
Increased factor 2 c Site 1 (combined/point mutation) [4]: 1.2
B3: human IgG2 anti-mouse CD40 surface displayed antibody, Fc mutant S267E/P271Y (antibody, name in EU numbering)
light chain (with the P2A rest): B1 light chain (with the P2A rest)
heavy chain: B1 heavy chain with S262E, P266Y, A322G, R325A
notes: as for B1

Increased factor 2 c Site 2 (combined/point mutation) [5]: 2.2
Enrichment factor (after/before sorting) [3]: 37.4
Increased factor a (enrichment factor/wild-type enrichment factor) [3]: 65.1
B4: human IgG2 anti-mouse CD40 surface displayed antibody, Fc mutant S267A/P271C (antibody, name in EU numbering)
light chain (with the P2A rest): B1 light chain (with the P2A rest)
heavy chain: B1 heavy chain with S262A, P266C, A322G, R325A
notes: as for B1

Increased factor 2 c Site 1 (combined/point mutation) [2]: 5.8
Enrichment factor (after/before sorting) [3]: 29.2
Increased factor a (enrichment factor/wild-type enrichment factor) [3]: 19.5
B5: human IgG2 anti-mouse CD40 surface displayed antibody, Fc mutant G327A/I332A (antibody, name in EU numbering)
light chain (with the P2A rest): B1 light chain (with the P2A rest)
heavy chain: B1 heavy chain with R325A, I327A
notes: as for B1

Increased factor 2 c Site 2 (combined/point mutation) [5]: 1.9
Enrichment factor (after/before sorting) [3]: 32.1
Increased factor a (enrichment factor/wild-type enrichment factor) [3]: 56
B6: human IgG2 anti-mouse CD40 surface displayed antibody, Fc mutant S267M/P271C (antibody, name in EU numbering)
light chain (with the P2A rest): B1 light chain (with the P2A rest)
heavy chain: B1 heavy chain with S262M, P266C, A322G, R325A
notes: as for B1

Increased factor 2 c Site 1 (combined/point mutation) [2]: 1.4
Enrichment factor (after/before sorting) [3]: 6.98
Increased factor a (enrichment factor/wild-type enrichment factor) [3]: 4.67
B7: human IgG2 anti-mouse CD40 surface displayed antibody, Fc mutant G327A/A330V (antibody, name in EU numbering)
light chain (with the P2A rest): B1 light chain (with the P2A rest)
heavy chain: B1 heavy chain with R325V
notes: as for B1

Enrichment factor (after/before sorting) [3]: 24
Increased factor a (enrichment factor/wild-type enrichment factor) [3]: 41.8
Increased factor 2 c Site 1 (combined/point mutation) [4]: 1.5
B8: human IgG2 anti-mouse CD40 surface displayed antibody, Fc mutant S267E/P271W (antibody, name in EU numbering)
light chain (with the P2A rest): B1 light chain (with the P2A rest)
heavy chain: B1 heavy chain with S262E, P266W, A322G, R325A
notes: as for B1

Increased factor 2 c Site 1 (combined/point mutation) [2]: 24.9
Enrichment factor (after/before sorting) [3]: 126
Increased factor a (enrichment factor/wild-type enrichment factor) [3]: 84.1
B9: human IgG2 anti-mouse CD40 surface displayed antibody, Fc mutant G327A/I332E (antibody, name in EU numbering)
light chain (with the P2A rest): B1 light chain (with the P2A rest)
heavy chain: B1 heavy chain with R325A, I327E
notes: as for B1

Absorbance value [6]: 0.08 A650
Increased factor of RIIB binding compared with wild-type IgG2 [6]: 1 fold
Relative binding affinity RIIB/G1 [6]: 0.1 ratio
Absorbance value [7]: 0.49 A650
Relative binding affinity RIIAH/G1 [7]: 0.85 ratio
Absorbance value [8]: 0.06 A650
Relative binding affinity RIIIAF/G1 [8]: 0.3 ratio
Absorbance value [9]: 0.05 A650
Relative binding affinity RIIIAV/G1 [9]: 0.06 ratio
Absorbance value [10]: 0.08 A650
Relative binding affinity RI/G1 [10]: 0.03 ratio
RIIB/RIIAR [11]: 0.34 ratio
Absorbance value [1]: 0.08 A650
Relative binding affinity RIIAR/G1 [1]: 0.29
B10: wild-type IgG2 anti-human OX40 antibody (antibody)
heavy: QVQLQESGPGLVKPSGTLSLTCAVSGGSISSSIWWSWVRQPPGKGLEWIGEIHHSGNTNCNPSLKSRVTISIDKSKNQFSLKLTSVTAADTAVYYCARAGTGTTLDYWGQGTLVTVSSASTKGPSVFPLAPCSRSTSESTAALGCLVKDYFPEPVTVSWNSGALTSGVHTFPAVLQSSGLYSLSSVVTVPSSNFGTQTYTCNVDHKPSNTKVDKTVERKCCVECPPCPAPPVAGPSVFLFPPKPKDTLMISRTPEVTCVVVDVSHEDPEVQFNWYVDGVEVHNAKTKPREEQFNSTFRVVSVLTVVHQDWLNGKEYKCKVSNKGLPAPIEKTISKTKGQPREPQVYTLPPSREEMTKNQVSLTCLVKGFYPSDIAVEWESNGQPENNYKTTPPMLDSDGSFFLYSKLTVDKSRWQQGNVFSCSVMHEALHNHYTQKSLSLSPGK
light: EIVLTQSPGTLSLSPGERATLSCRASQSVSGDYLAWYQQKLGQAPRLLIYGASIRATGIPDRFSGSGSGTDFTLTISKLEPEDFAVYYCQQYGSSPLTFGGGTKVEIKRTVAAPSVFIFPPSDEQLKSGTASVVCLLNNFYPREAKVQWKVDNALQSGNSQESVTEQDSKDSTYSLSSTLTLSKADYEKHKVYACEVTHQGLSSPVTKSFNRGEC
notes: also called WTIgG2

Absorbance value [6]: 0.55 A650
Increased factor of RIIB binding compared with wild-type IgG2 [6]: 7.28 fold
Relative binding affinity RIIB/G1 [6]: 0.72 ratio
Absorbance value [7]: 0.06 A650
Relative binding affinity RIIAH/G1 [7]: 0.11 ratio
Absorbance value [8]: 0.08 A650
Relative binding affinity RIIIAF/G1 [8]: 0.41 ratio
Absorbance value [9]: 0.09 A650
Relative binding affinity RIIIAV/G1 [9]: 0.09 ratio
Absorbance value [10]: 0.19 A650
Relative binding affinity RI/G1 [10]: 0.07 ratio
RIIB/RIIAR [11]: 2.24 ratio
Absorbance value [1]: 0.08 A650
Relative binding affinity RIIAR/G1 [1]: 0.32
B11: anti-human OX40 IgG2 antibody Mut_26 (V234Q/A235G/P238L/S239V/S267E/H268S/E269D) (antibody)
heavy: B10 heavy with V232Q, A233G, P235L, S236V, S264E, H265S, E266D
light: B10 light
notes: Substitutions in Eu numbering; entries include an unstated signal peptide
